Data: PMC7016264, “Redox requirements for ubiquitin-like urmylation of Ahp1, a 2-Cys peroxiredoxin from yeast” (Redox Biology, 2020)

Biological target: the molecule itself
Test: SEC-MALS; proteins reduced with 50 mM DTT, exchanged into 20 mM HEPES pH 7.5, 100 mM NaCl, 1 mM TCEP, diluted to 125 uM; dimer to monomers

B1: His-tagged Ahp1, wild-type (recombinant) (enzyme, S. cerevisiae, UniProt P38013 1-176, looked up)
chain: MSDLVNKKFPAGDYKFQYIAISQSDADSESCKMPQTVEWSKLISENKKVIITGAPAAFSPTCTVSHIPGYINYLDELVKEKEVDQVIVVTVDNPFANQAWAKSLGVKDTTHIKFASDPGCAFTKSIGFELAVGDGVYWSGRWAMVVENGIVTYAAKETNPGTDVTVSSVESVLAHL
notes: Ahp1, 2-Cys peroxiredoxin of Saccharomyces cerevisiae; The printed mass of the His-tagged monomer is ~23.3 kDa (dimer 46.7 kDa) against ~19 kDa for untagged Ahp1, so vector-derived residues are probably present; also called wild-type Ahp1; wt Ahp1; source: E. coli, purified (His-tagged)
  stoichiometry N: 2
